{
  "source": "patent US20170073406A1",
  "binders": {"B1": {"name": "1D11 antibody (mouse monoclonal anti-TGF-β1, 2 and 3 antibody, R&D Systems, Minneapolis, Minn.) (antibody, from another filing, V domains shown)", "VH": "QVQLQQSGPELVRPGASVKLSCKASGYIFITYWMNWVKQRPGQGLEWIGQIFPASGSTNYNEMFEGKATLTVDTSSSTAYMQLSSLTSEDSAVYYCARGDGNYALDAMDYWGQGTSVTVSS", "VL": "DIVLTQSPASLAVSLGQRATISCRASESVDSYGNSFMHWYQQKSGQPPKLLIYLASNLESGVPARFSGSGSRTDFTLTIDPVEADDAATYYCQQNNEDPLTFGAGTKLEIK"}},
  "key": {"[1]": {"target": "biotinylated His-tagged TGF-β1 LAP C4S (Homo sapiens (Human)) (UniProt P01137)", "sequence (P01137 other isoform, or with tags, fused parts or gaps limits assumed)": "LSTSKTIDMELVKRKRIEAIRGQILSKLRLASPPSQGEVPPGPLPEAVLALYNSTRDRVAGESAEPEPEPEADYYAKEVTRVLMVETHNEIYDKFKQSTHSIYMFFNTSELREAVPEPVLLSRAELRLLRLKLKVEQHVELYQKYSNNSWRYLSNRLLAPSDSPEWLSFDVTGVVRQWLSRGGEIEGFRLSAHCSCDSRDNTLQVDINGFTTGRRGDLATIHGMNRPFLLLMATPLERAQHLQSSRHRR", "experiment": "ELISA, neutravidin plate with biotinylated His-tagged TGF-β1 LAP C4S; antibody dilution 1:1,000; fluorescent secondary detection"}, "[2]": {"target": "biotinylated His-tagged TGF-β1 LAP C4S (Homo sapiens (Human)) (UniProt P01137)", "experiment": "ELISA, neutravidin plate with biotinylated His-tagged TGF-β1 LAP C4S; antibody dilution 1:5,000; fluorescent secondary detection"}, "[3]": {"target": "biotinylated His-tagged TGF-β1 LAP C4S (Homo sapiens (Human)) (UniProt P01137)", "experiment": "ELISA, neutravidin plate with biotinylated His-tagged TGF-β1 LAP C4S; antibody dilution 1:10,000; fluorescent secondary detection"}},
  "data": [
    {"binder": "B1", "values": [
      {"measurement": "RFU", "setting": "[1]", "value": 218, "unit": "RFU"},
      {"measurement": "RFU", "setting": "[2]", "value": 214, "unit": "RFU"},
      {"measurement": "RFU", "setting": "[3]", "value": 198, "unit": "RFU"}
    ]}
  ]
}
